T1: full-length Snf7^(R52E E95K E102K E109K) (Saccharomyces cerevisiae, UniProt P39929 1-240, R52E | E95K | E102K | E109K)
T1 construct: Snf7 (Vps32), S. cerevisiae, full length, charge inversion on α2/3; source: E. coli BL21 or C41, purified (TALON, Superdex-200)
T1 sequence (looked up): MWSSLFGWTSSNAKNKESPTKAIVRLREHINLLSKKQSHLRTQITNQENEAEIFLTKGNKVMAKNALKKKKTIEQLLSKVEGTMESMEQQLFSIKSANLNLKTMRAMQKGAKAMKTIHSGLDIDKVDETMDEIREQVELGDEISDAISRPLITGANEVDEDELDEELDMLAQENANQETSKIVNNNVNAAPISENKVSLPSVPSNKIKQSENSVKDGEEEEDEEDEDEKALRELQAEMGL

B1: full-length Snf7^(R52E E88C H118C), MTSL-labeled (natural protein, Saccharomyces cerevisiae, UniProt P39929 1-240, looked up)
chain: MWSSLFGWTSSNAKNKESPTKAIVRLREHINLLSKKQSHLRTQITNQENEAEIFLTKGNKVMAKNALKKKKTIEQLLSKVEGTMESMCQQLFSIESANLNLETMRAMQEGAKAMKTICSGLDIDKVDETMDEIREQVELGDEISDAISRPLITGANEVDEDELDEELDMLAQENANQETSKIVNNNVNAAPISENKVSLPSVPSNKIKQSENSVKDGEEEEDEEDEDEKALRELQAEMGL
modifications: MTSL nitroxide spin label on cysteines 88 and 118
notes: Snf7 (Vps32), S. cerevisiae, full length; also called double-labeled Snf7^(R52E E88C H118C); source: E. coli BL21 or C41, purified (TALON, Superdex-200)
B2: full-length Snf7^(R52E K60C A66C), MTSL-labeled (natural protein, Saccharomyces cerevisiae, UniProt P39929 1-240, looked up)
chain: MWSSLFGWTSSNAKNKESPTKAIVRLREHINLLSKKQSHLRTQITNQENEAEIFLTKGNCVMAKNCLKKKKTIEQLLSKVEGTMESMEQQLFSIESANLNLETMRAMQEGAKAMKTIHSGLDIDKVDETMDEIREQVELGDEISDAISRPLITGANEVDEDELDEELDMLAQENANQETSKIVNNNVNAAPISENKVSLPSVPSNKIKQSENSVKDGEEEEDEEDEDEKALRELQAEMGL
modifications: MTSL nitroxide spin label on cysteines 60 and 66
notes: Snf7 (Vps32), S. cerevisiae, full length; also called double-labeled Snf7^(R52E K60C A66C); source: E. coli BL21 or C41, purified (TALON, Superdex-200)

Tests used:
[1] = target: the molecule itself; experiment: negative stain TEM; recombinant Snf7 proteins, protofilament formation seen by negative stain transmission electron microscopy; as in Henne et al., 2012
[2] = target: T1, full-length Snf7^(R52E E95K E102K E109K); experiment: as above; conditions: both partners purified
[3] = target: B2; experiment: DEER (pulsed dipolar ESR spectroscopy); MTSL-labeled full-length Snf7 proteins (10-30 μM), alone or diluted with unlabeled Snf7^R52E, incubated with DOPC/DOPS/PI(3)P liposomes at room temperature for 15 min, pelleted by ultracentrifugation; 150 mM NaCl, 20 mM HEPES pD7.4; DEER at 60 K; conditions: both partners purified
[4] = target: B1; experiment: as above; conditions: both partners purified
[5] = target: the molecule itself; experiment: crystal structure; Snf7^core crystals, conformation A (2.4 Å) and B (1.6 Å), space group P2_1, one molecule in the asymmetric unit; protofilaments formed in the crystal lattice; grown at pH 5.5 (MES:NaOH, NaCl, PEG20,000), 4 °C

| Binder | binding result [1] | other results |
| --- | --- | --- |
| B1 | binds | – |
| B2 | binds | – |
| full-length Snf7^(R52E E88C), MTSL-labeled (natural protein, Saccharomyces cerevisiae, UniProt P39929 1-240, looked up, MTSL nitroxide spin label on cysteine 88, Snf7 (Vps32), S. cerevisiae, full length; source: E. coli BL21 or C41, purified (TALON, Superdex-200)) MWSSLFGWTSSNAKNKESPTKAIVRLREHINLLSKKQSHLRTQITNQENEAEIFLTKGNKVMAKNALKKKKTIEQLLSKVEGTMESMCQQLFSIESANLNLETMRAMQEGAKAMKTIHSGLDIDKVDETMDEIREQVELGDEISDAISRPLITGANEVDEDELDEELDMLAQENANQETSKIVNNNVNAAPISENKVSLPSVPSNKIKQSENSVKDGEEEEDEEDEDEKALRELQAEMGL | binds | – |
| full-length Snf7^(R52E K60C), MTSL-labeled (natural protein, Saccharomyces cerevisiae, UniProt P39929 1-240, looked up, MTSL nitroxide spin label on cysteine 60, Snf7 (Vps32), S. cerevisiae, full length; source: E. coli BL21 or C41, purified (TALON, Superdex-200)) MWSSLFGWTSSNAKNKESPTKAIVRLREHINLLSKKQSHLRTQITNQENEAEIFLTKGNCVMAKNALKKKKTIEQLLSKVEGTMESMEQQLFSIESANLNLETMRAMQEGAKAMKTIHSGLDIDKVDETMDEIREQVELGDEISDAISRPLITGANEVDEDELDEELDMLAQENANQETSKIVNNNVNAAPISENKVSLPSVPSNKIKQSENSVKDGEEEEDEEDEDEKALRELQAEMGL | binds | – |
| full-length Snf7^(R52E T20C), MTSL-labeled (natural protein, Saccharomyces cerevisiae, UniProt P39929 1-240, looked up, MTSL nitroxide spin label on cysteine 20, Snf7 (Vps32), S. cerevisiae, full length; source: E. coli BL21 or C41, purified (TALON, Superdex-200)) MWSSLFGWTSSNAKNKESPCKAIVRLREHINLLSKKQSHLRTQITNQENEAEIFLTKGNKVMAKNALKKKKTIEQLLSKVEGTMESMEQQLFSIESANLNLETMRAMQEGAKAMKTIHSGLDIDKVDETMDEIREQVELGDEISDAISRPLITGANEVDEDELDEELDMLAQENANQETSKIVNNNVNAAPISENKVSLPSVPSNKIKQSENSVKDGEEEEDEEDEDEKALRELQAEMGL | binds | – |
| full-length Snf7^(R52E H118C), MTSL-labeled (natural protein, Saccharomyces cerevisiae, UniProt P39929 1-240, looked up, MTSL nitroxide spin label on cysteine 118, Snf7 (Vps32), S. cerevisiae, full length; source: E. coli BL21 or C41, purified (TALON, Superdex-200)) MWSSLFGWTSSNAKNKESPTKAIVRLREHINLLSKKQSHLRTQITNQENEAEIFLTKGNKVMAKNALKKKKTIEQLLSKVEGTMESMEQQLFSIESANLNLETMRAMQEGAKAMKTICSGLDIDKVDETMDEIREQVELGDEISDAISRPLITGANEVDEDELDEELDMLAQENANQETSKIVNNNVNAAPISENKVSLPSVPSNKIKQSENSVKDGEEEEDEEDEDEKALRELQAEMGL | binds | – |
| full-length Snf7^(R52E K35C), MTSL-labeled (natural protein, Saccharomyces cerevisiae, UniProt P39929 1-240, looked up, MTSL nitroxide spin label on cysteine 35, Snf7 (Vps32), S. cerevisiae, full length; source: E. coli BL21 or C41, purified (TALON, Superdex-200)) MWSSLFGWTSSNAKNKESPTKAIVRLREHINLLSCKQSHLRTQITNQENEAEIFLTKGNKVMAKNALKKKKTIEQLLSKVEGTMESMEQQLFSIESANLNLETMRAMQEGAKAMKTIHSGLDIDKVDETMDEIREQVELGDEISDAISRPLITGANEVDEDELDEELDMLAQENANQETSKIVNNNVNAAPISENKVSLPSVPSNKIKQSENSVKDGEEEEDEEDEDEKALRELQAEMGL | binds | – |
| full-length Snf7^(R52E G140C), MTSL-labeled (natural protein, Saccharomyces cerevisiae, UniProt P39929 1-240, looked up, MTSL nitroxide spin label on cysteine 140, Snf7 (Vps32), S. cerevisiae, full length; source: E. coli BL21 or C41, purified (TALON, Superdex-200)) MWSSLFGWTSSNAKNKESPTKAIVRLREHINLLSKKQSHLRTQITNQENEAEIFLTKGNKVMAKNALKKKKTIEQLLSKVEGTMESMEQQLFSIESANLNLETMRAMQEGAKAMKTIHSGLDIDKVDETMDEIREQVELCDEISDAISRPLITGANEVDEDELDEELDMLAQENANQETSKIVNNNVNAAPISENKVSLPSVPSNKIKQSENSVKDGEEEEDEEDEDEKALRELQAEMGL | binds | – |
| full-length Snf7^(R52E R25E H29E K36E) (natural protein, Saccharomyces cerevisiae, UniProt P39929 1-240, looked up, Snf7 (Vps32), S. cerevisiae, full length, charge inversion on α1; source: E. coli BL21 or C41, purified (TALON, Superdex-200)) MWSSLFGWTSSNAKNKESPTKAIVELREEINLLSKEQSHLRTQITNQENEAEIFLTKGNKVMAKNALKKKKTIEQLLSKVEGTMESMEQQLFSIESANLNLETMRAMQEGAKAMKTIHSGLDIDKVDETMDEIREQVELGDEISDAISRPLITGANEVDEDELDEELDMLAQENANQETSKIVNNNVNAAPISENKVSLPSVPSNKIKQSENSVKDGEEEEDEEDEDEKALRELQAEMGL | – | binding result [2]: binds |
| full-length Snf7^R52E (natural protein, Saccharomyces cerevisiae, UniProt P39929 1-240, looked up, purification as in Henne et al., 2012; also called unlabeled Snf7^R52E; source: E. coli BL21 or C41, purified (TALON, Superdex-200)) MWSSLFGWTSSNAKNKESPTKAIVRLREHINLLSKKQSHLRTQITNQENEAEIFLTKGNKVMAKNALKKKKTIEQLLSKVEGTMESMEQQLFSIESANLNLETMRAMQEGAKAMKTIHSGLDIDKVDETMDEIREQVELGDEISDAISRPLITGANEVDEDELDEELDMLAQENANQETSKIVNNNVNAAPISENKVSLPSVPSNKIKQSENSVKDGEEEEDEEDEDEKALRELQAEMGL | binds | binding result [3]: binds; binding result [4]: binds |
| Snf7^core (Saccharomyces cerevisiae Snf7 residues 12-150) (domain or fragment, UniProt P39929 12-150, looked up, Snf7 (Vps32), S. cerevisiae, core domain, residues 12-150; One molecule in the asymmetric unit; the protofilament is built by the crystal lattice; also called Snf7 core domain; open conformation A; source: E. coli Rosetta, purified (TALON, Superdex-200); not shown: His6-Sumo, N-terminal, cleaved) NAKNKESPTKAIVRLREHINLLSKKQSHLRTQITNQENEARIFLTKGNKVMAKNALKKKKTIEQLLSKVEGTMESMEQQLFSIESANLNLETMRAMQEGAKAMKTIHSGLDIDKVDETMDEIREQVELGDEISDAISRP | – | binding result [5]: binds |
